From paper PMC4072576 (Molecular Biology of the Cell, 2014)

Biological target: F-actin (rabbit muscle actin) (rabbit, UniProt P68135 1-377)
Experiment: co-sedimentation

Binder | binding result | Kd [nM] | stoichiometry N
His-ctxII (recombinant N-terminal His-tagged cortexillin II) (natural protein) MDLNKEWEKVQEMAFTSWVNSVLEKRGCDKISDVSTDLSDGVKLIYFLESVSGKKFPKKFDLEPKTRIMRVQNLHLAMLFIDEDLKIKVQGVAAEEFVDNNKKMILGFLWTLYRKYRISVINEGDKSSEEGLLAWCKKTTEGYNNVNITGFKSSFRDGHGFLALAHKYDPTVFKYDEYEGHDNIARLNAAFDFAEKGLGIPKLLEAESLSKGNVDERSIVLYTSLFFHAFRAKEEREALEASQNSLNNKLASLEQSLEGEKHSQEELVKQKKDLEDALNKIREQNDNRNSRITDLQSKIDDALRGLDDEKLAKLDLESRLAKCEKDKAILELKLAEILDEKDRLEKKIDEDKKRAEAERLGLGLIRQHLAAQFSDIHKWQSFLEHPETVPYTGTPVDLDSELSSLSFEEQAKKLASKLESENILIEKYLNGKEEAKAAAKK | binds |  | 
His-ctxI (recombinant N-terminal His-tagged cortexillin I) (natural protein) MAGKDWEIVQEKAFTAWVNSVLDKRGEKISDVGKDLSDGVKLIFFLELISSKKFNKKYDFEPKARINMIQNVALALKFLDEELKIKVQGIGSEDFVDNNKKMILGFLWTLYRKYRIAVISEGDKSSEEGLLLWCKNTTTGYDGVNITSFTKSFRDGLAFLALSHKFEPESFKFQEFEAMDPIARLNAAFDFAEKGLGVPKLLEAEEVMRGTTDERSLVLYTSLFFHAYRAKEEKARLESSKNEMANRLAGLENSLESEKVSREQLIKQKDQLNSLLASLESEGAEREKRLRELEAKLDETLKNLELEKLARMELEARLAKTEKDRAILELKLAEAIDEKSKLEQQIEATRIRGAAEAQGLGLLRKNLDTHVHDLLKWQKLTMENSSSSSIDDQIIVEVSGLPFGEQVKHLATKLEAENLAIMKLLNQKEDDLKAQKLKSSKSKK |  | ~200 | ~4 actin subunits per ctxI homodimer
